Article PMC8495200, “Domain Organization of the UBX Domain Containing Protein 9 and Analysis of Its Interactions With the Homohexameric AAA + ATPase p97 (Valosin-Containing Protein)” (Frontiers in Cell and Developmental Biology, 2021)
Several values for one entry are separate records, joined by “and”; a condition that tells them apart may be missing. Identical values can stand only once.

Target: the molecule itself
Experiment: native gel or EMSA; Blue Native PAGE, purified recombinant non-tagged proteins in 1 x PBS, 1 mM DTT, 1 mM ATP; 4-16% Bis-Tris gels, cold room, Coomassie staining

B1: p97 (valosin-containing protein), D. discoideum, recombinant (enzyme, UniProt P90532 1-793, looked up)
chain: MATIEDTSKDNNNPILERKKAPNRLFVEEAINDDNSVVTLNPETMDQLQFFRGDTLLIKGKKRRDTVCIVLSDPTIDPSKIRMNKVVRNNLRVRLGDMISVHQCSDVKYGKRIHVLPIDDTIEGLSGNLFDLYLKPYFLEAYRPVRKGDLFLVRGGMRAVEFKVVETDPGEYCIVAPETFIHCEGEAVKREDEDRLDEVGYDDIGGVRKQLGQIRELVELPLRHPQLFKNIGVKPPKGILLYGPPGCGKTMIARAVANETGAFFFLINGPEIMSKLAGESESNLRKAFEEAEKNAPSIIFIDEIDSIAPKREKTQGEVERRIVSQLLTLMDGLKSRAHVIVMGATNRPNSIDPALRRFGRFDREIDITIPDATGRLEIMRIHTKNMKLDETVDLEAVANETHGYVGADLAALCTESALQCIREKMDVIDLEDETISAEILESMSVTQDHFRTALTLSNPSALRETVVEVPTTTWEDIGGLEGVKRELRETVQYPVEHPEKFRKFGMQPSKGVLFYGPPGCGKTLLAKAIANECQANFISIKGPELLTMWFGESEANVRELFDKARQAAPCVLFFDELDSIARSRGSSQGDAGGAGDRVINQILTEMDGMNAKKNVFIIGATNRPDIIDPAILRPGRLDQLIYIPLPDLPSRVAILKACLNKSPVAKDVDLEFLGQKTQGFSGADLTEICQRACKLAIRESIEKDIESTKARQESGDTKMEDDSVDPVPEITRDHFQEAMRSARRSVSDNDIRKYESFAQTLVQSRGLGNNFKFPDQESSGQFNQDQSDDLFSN
notes: AAA+ ATPase p97 (VCP), D. discoideum; purification as in Rijal et al., 2016; Whether p97 was made as a GST fusion and cleaved is not clearly said; also called VCP; source: E. coli XL1 Blue or ArcticExpress, purified
stoichiometry N: 6 and 2

B2: UBXD9, full length, GST tag cleaved (natural protein, D. discoideum, UniProt Q54X06 1-573, looked up)
chain: MSSIHIIYKTGKTTVPVIASTVMMEVLKKACQYFKIDDSRFQLMYGSTYVNLSLPFRLSGIPNLSRVTIMEKKGASISTVKIAIQMDDGKRFQSNFKTSSTLWDILLTFETEQNLSLTKRFNDVNQYIEPVVTILNREISTIESLQKSSLASINVNEASLIKLTFKQTDRTNEEVLPIIVSYQSPSTPTESPTTTTTTTTTTTTNNTTKEESPKTTNSPTNSESSTKSQNSSGSQQSPIIISPPTQQSTSSDVSTPTMDIDSPLVKNVEKSPISDLGLNPSSNIPLPDKTYNNETTTTTTTTSNNDVQVSTPPKIATMDHKDRELLVYTPSNNQVDPKSIRHNEKMTEEDIKRLVEANKRVKKEKEEFDSVLRTKAMREREAYKKHKNFSTSIIRIVFPGGQKILEMKFLIREKISNLLKYINEYILAQPNDSVYLYTTPPNKTLDLNTTFLKEGLFPRAKIFLGVSPGTTLIFSELVNELIEESNNKNNNNNNNNNTTTTTTSTISQEELDKQEEEQERIEEQMKIEEEKQLKLEDEQEKERQRALRSMFNNEKEGDSQKRPVPKWFTAGKK
notes: The cleaved state is stated for the Blue Native PAGE; also called full-length UBXD9; source: E. coli XL1 Blue or ArcticExpress, purified, liberated from the beads with PreScission protease
stoichiometry N: 6
